Test: soluble on expression in E. coli; label from the status in PepcDB or PDB records

| Sequence | soluble on expression in E. coli |
| --- | --- |
| MLWWEEVEDSYEREDVQKKTFTKWVNAQFSKFGKQHIENLFSDLQDGRRLLDLLEGLTGQKLPKEKGSTRVHALNNVNKALRVLQNNNVDLVNIGSTDIVDGNHKLTLGLIWNIILHWQVKNVMKNIMAGLQQTNSEKILLSWVRQSTRNYPQVNVINFTTSWSDGLALNALIHSHRPDLFDWNSVVSQQSATQRLEHAFNIARYQLGIEKLLDPEDVDTTYPDKKSILMYITSLFQVLPQQVSIE | soluble |
| MGSDKIHHHHHHMAELSTRYNPAEIETKWYRYWEEKGYFTPKGVGEKFSIVIPPPNITGRIHMGHALNITLQDIVVRYKRMKGYDVLWVPGEDHAGIATQNAVEKFLLQTQGKTREEIGREKFLEITWEWANKYRREIREQIKALGASVDWTRERFTLDEGLSRAVRKVFVELYRKGLIYRGKYIVNWCPRCKTVLSDEEVEHKEHKSKLYYVKYPVKDSDEYIVVATTRPETMLGDTAVAVHPEDERYKNFVGKTLILPLVGREIPVVADKYVDPKFGTGAVKVTPAHDPNDYLIAQRHNLPMIEIFDDNARINENGGKYKGLDRYEAREKIVKDLEEQGFLVKIEDYTHSVGHCYRCDTVIEPKLSDQWFVSTKPLAKRAIEAVENGEIRFFPERWTKVYLNWMYEIRDWCISRQLWWGHRIPVWYCQDCGHLNVSEEDVEKCEKCGSTNLKQDEDVLDTWFSSALWPFSTLGWPEETEDLKRYYPTDLLVTGFDIIFFWVARMIMMGYEFMNDKPFSHVYIHQLVRDKYGRKMSKSLGNGIDPLEVIDEYGADPMRFTLAILAAQGRDIKLDPRYFDAYKKFANKIWNATRFVLMNLEDYKEVPLENLKTVDKWILTRLNKTVEEVTNALENYDFNIAARTIYNFFWDDFCDWYIEASKPRLKTEERNLVQTVLVKVLDASLRLLHPFMPFLTEELWQKLPVAGESITIAKWPEIERELIDETAEKEFTRLMNMVRGVRNVRAEMNLPQSQRVKVYIKGYEVTEEEELLLKTLGNIEEVSFVNEKPPKTATAYVEEEIEAYVDLGGLIDFEKEKERLKQIMEKIQKEIDRLEKKLANKDFVEKAPEEVVEETKEKLNTNRERLARLESILRDLE | not soluble |
| MGSDKIHHHHHHCDDNDGYSLGDIAVDWATVRVVGGDTYSLNADRWGTLWPAATAIPFYKPIDGQRVITYFNPLYDNYEGYDHAVKVEHNYNVLTKQVEDLTAENESEFGNDPVWVNKDMMWIGGGYLNVIFRQNLPVKEKHLVSLVRDMRATAAEGEDDGYIHLELRYKTYDDVTARQANGAVSFNLNSLDLTGKKGIKVKLNSVKDGETEVVFNLKGQSMPEEAKQVTLSDEVQIK | not soluble |
| MGSDKIHHHHHHMVRFISNTLSQTLNEPFQQSHKSCKHLYILEILSQVVIVSDQKQVPLQPYDIILAQSFNHLQIDSLDRNPILLRLYSLDFDLPSPLNQYTVGDNPLIHDLMNDHTSEDAYILFTNLSDLICHAYLDALEKLENLRDNNDEQVYIDFQRQKLAGLLFTELLRQHDAKVSKFASRFPSVNVKYASKDSQSGAIMKYVSDNVHHISLKEAAAHFFYQANYFSRLCHELFGISFNQLKTTIRLEIAKEQLRLTTKSVEEISQELGYKAVSNFHRNFKSQTGMTPNDYRQDKQ | not soluble |
| MKEIIARHKAGEHLGICSVCSAHPLVIESALLFDLNTDNKVLIEATSNQVNQFGGYTGMKPADFRDFVYGIAQEVGFPRERLILGGDHLGPNCWQNEPAAAAMEKSVELIKAYVAAGFSKIHLDASMSCADDPTPLDPMVVARRAAVLCKAAEGTANEEQKCHLTYVIGTEVPVPGGEASTIGSVHVTREVDAARTLETHQIAFRESGLEEALSRVIAIVVQPGVEFDHTQIIHYQPQAAQALSAWIKETPMVYEAHSTDYQTRQAYRALVRDHYAILKVGPALTFALREAIFALAQMENELISPEQRSRVLEVIDEVMLNEPGYWKKYYRPTWSQAMVDIHFSLSDRIRYYWPHPRIRQSVEKLIANLNNVTLPLGLISQFMPVQFERLSEGVLTPTPHNLIIDKIQDVLRAYRFGCTPDVA | not soluble |
| MGSDKIHHHHHHMDTQQLYFLNDIGKQKPESIRNRSAACPFCDRENLTDILATEGSIIWLKNKFPTLKDTFQTVLIETDNCEDHIATYTEEHMRSLIRFSIKHWLNLQKNEEFTSVILYKNHGPFSGGSLHHAHMQIIGMKYVNYLDNVEQDNFQGVIVQKNEHIELNISDRPIIGFTEFNIIIEDIGCIDELANYIQQTVRYILTDFHKGCSSYNLFFYYLNEKIICKVVPRFVVSPLYVGYKIPQVSTKIEDVKIQLAAYFTKQNDAIIHKKIE | not soluble |

— the DeepSol protein solubility set
